Source: patent US10745460B2, “Peptides and combination of peptides for use in immunotherapy against various tumors” (Immatics Biotechnologies GmbH, priority 2015, dated 2020)

The substances below were run against HLA-A*02:01 (Homo sapiens, UniProt P04439, D140Y/D185E/D98H/E176V/E277Q/G131W/G231S/I119V/I121R/I166T/I218V/L300P/L318F/N151K/N90K/P208A/P217A/Q86G/Q94H/R138H/R169H/T345S) (assay: MHC binding assay: UV-ligand exchange with β2m ELISA (peptide exchange yield)). Conditions: binding to HLA-A*02:01 evaluated by peptide exchange yield (UV-ligand exchange, β2m ELISA).
In short: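 Exchange yield, UV-ligand exchange: 100-fold diluted samples on streptavidin plates, 1 h at 37 °C; HRP anti-β2m 1 h at 37 °C; TMB read at 450 nm.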

| Substance | Peptide exchange |
| --- | --- |
| 255 (FLMKNSDLYGA; listed as Homo sapiens) [compound 255] | +++ (≥50 = +++) |
| 44 (AVFNLVHVV; listed as Homo sapiens) [compound 44] | +++ (≥50 = +++) |
| 193 (ALFHMNILL; listed as Homo sapiens) [compound 193] | +++ (≥50 = +++) |
| 68 (QLMNLIRSV; listed as Homo sapiens) [compound 68] | +++ (≥50 = +++) |
| 198 (ILTNKVVSV; listed as Homo sapiens) [compound 198] | ++ (≥20% = ++) |
| 138 (GIINKLVTV; listed as Homo sapiens) [compound 138] | ++ (≥20% = ++) |
| 40 (KIWEELSVLEV; listed as Homo sapiens) [compound 40] | +++ (≥50 = +++) |
| 74 (GLAFLPASV; listed as Homo sapiens) [compound 74] | ++ (≥20% = ++) |
| 35 (VIIKGLEEI; listed as Homo sapiens) [compound 35] | ++ (≥20% = ++) |
| 107 (RVLPGQAVTGV; listed as Homo sapiens) [compound 107] | ++ (≥20% = ++) |
| 94 (YLDEVAFML; listed as Homo sapiens) [compound 94] | +++ (≥50 = +++) |
| 223 (ALHPVQFYL; listed as Homo sapiens) [compound 223] | +++ (≥50 = +++) |
| 204 (SEWGSPHAAVP; listed as Homo sapiens) [compound 204] | +++ (≥50 = +++) |

These substances were tested on CD8+ T cells (assay: In vitro T-cell priming assay with aAPCs loaded with peptide/MHC complexes and anti-CD28 antibody (in vitro immunogenicity)). Conditions: percentage of positive donors, healthy HLA-A*02 donors.
Format: cell-based, human
Description: In order to obtain information regarding the immunogenicity of the TUMAPs of the present invention, the inventors performed investigations using an in vitro T-cell priming assay based on repeated stimulations of CD8+ T cells with artificial antigen presenting cells (aAPCs) loaded with peptide/MHC complexes and anti-CD28 antibody.
In order to perform in vitro stimulations by artificial antigen presenting cells loaded with peptide-MHC complex (pMHC) and anti-CD28 antibody, the inventors first isolated CD8+ T cells from fresh HLA-A*02 leukapheresis products via positive selection using CD8 microbeads (Miltenyi Biotec, Bergisch-Gladbach, Germany) of healthy donors obtained from the University clinics Mannheim, Germany, after informed consent. […] Generation of pMHC/anti-CD28 coated beads, T-cell stimulations and readout was performed in a highly defined in vitro system using four different pMHC molecules per stimulation condition and 8 different pMHC molecules per readout condition. […]
800.000 beads/200 μl were coated in 96-well plates in the presence of 4×12.5 ng different biotin-pMHC, washed and 600 ng biotin anti-CD28 were added subsequently in a volume of 200 μl. […] Peptide specific cells were calculated as percentage of total CD8+ cells. […] In vitro priming of specific multimer+ CD8+ lymphocytes was detected by comparing to negative control stimulations. […]

| Substance | donors |
| --- | --- |
| 288 (SLYKGLLSV; listed as Homo sapiens) [compound 288] | ++++ (>=70% = ++++) |

Same assay, conditions: percentage of positive wells, healthy HLA-A*02 donors

| Substance | wells |
| --- | --- |
| 287 (KIQEILTQV; listed as Homo sapiens) [compound 287] | + (<20% = +) |
